{"source": "patent US8242083B2", "about": "“Kinase substrates” (PerkinElmer Health Sciences, Inc., priority 2008, dated 2012)", "type_in_all_cases": "biochemical", "key": {"ABL": {"molecular_target": "ABL (Homo sapiens, UniProt P00519)", "sequence (P00519 whole entry, species assumed)": "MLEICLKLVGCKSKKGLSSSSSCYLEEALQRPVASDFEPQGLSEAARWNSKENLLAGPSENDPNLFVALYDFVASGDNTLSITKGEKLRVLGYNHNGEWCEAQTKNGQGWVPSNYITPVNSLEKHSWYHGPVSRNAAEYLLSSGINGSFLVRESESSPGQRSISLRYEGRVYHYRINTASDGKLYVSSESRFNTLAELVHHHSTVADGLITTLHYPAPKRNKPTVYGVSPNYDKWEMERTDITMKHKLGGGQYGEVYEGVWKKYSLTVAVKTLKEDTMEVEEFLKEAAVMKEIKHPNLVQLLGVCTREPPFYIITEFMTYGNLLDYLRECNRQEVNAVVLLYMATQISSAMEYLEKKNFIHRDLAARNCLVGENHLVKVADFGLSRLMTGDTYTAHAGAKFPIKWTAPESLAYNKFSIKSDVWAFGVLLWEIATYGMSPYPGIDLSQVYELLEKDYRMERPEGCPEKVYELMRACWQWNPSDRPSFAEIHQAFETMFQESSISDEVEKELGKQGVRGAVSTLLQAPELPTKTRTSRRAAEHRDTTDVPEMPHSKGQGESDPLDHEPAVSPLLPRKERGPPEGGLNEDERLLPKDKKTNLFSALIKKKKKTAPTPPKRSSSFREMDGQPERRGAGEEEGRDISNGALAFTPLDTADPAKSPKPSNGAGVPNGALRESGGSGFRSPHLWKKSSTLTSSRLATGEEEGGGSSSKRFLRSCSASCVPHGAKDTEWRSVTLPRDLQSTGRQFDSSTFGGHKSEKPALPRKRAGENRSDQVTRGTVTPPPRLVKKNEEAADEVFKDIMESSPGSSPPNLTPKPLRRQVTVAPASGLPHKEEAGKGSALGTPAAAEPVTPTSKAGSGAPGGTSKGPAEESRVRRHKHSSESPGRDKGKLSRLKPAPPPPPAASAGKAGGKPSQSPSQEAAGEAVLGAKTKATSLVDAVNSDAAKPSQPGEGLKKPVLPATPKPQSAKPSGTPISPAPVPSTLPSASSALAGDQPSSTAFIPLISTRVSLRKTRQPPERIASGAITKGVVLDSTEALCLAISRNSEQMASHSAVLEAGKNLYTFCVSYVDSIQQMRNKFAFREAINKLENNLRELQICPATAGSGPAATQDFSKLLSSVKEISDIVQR", "assay": "TR-FRET kinase assay, ABL", "settings": "Kinase Concentration 0.25 nM; 50 nM ULight-labeled substrate, 200 micromolar ATP, 2 hours", "method": "(§1) TR-FRET kinase assays are performed under standardized conditions: various individual kinases are incubated with 50 nM of kinase substrate BRB1 labeled with the TR-FRET acceptor dye ULight (PerkinElmer) and 200 micromolar ATP in 10 μL of kinase assay buffer (50 mM HEPES pH7.5, 10 mM MgCl2, 3 mM MnCl2, 1 mM EGTA, 2 mM DTT and 0.01% Tween-20) for 2 hours at room temperature. Reactions are stopped with EDTA, and anti-phospho-tyrosine antibodies (clone PT66) labeled with the TR-FRET europium chelate donor dye are added to a final concentration of 2 nM in a final volume of 20 μL. The TR-FRET signal emitted at 665 nm is read one hour after the addition of antibodies using a TR-FRET plate reader such as the Envision® Multilabel Plate reader (PerkinElmer). The emitted signal at 665 nm is proportional to the extent of peptide phosphorylation, Control reactions indicative of background are performed excluding ATP from the reaction.\n(§2) Assay conditions are identical to those used described for FIG. 1."}, "ACK": {"molecular_target": "ACK (Homo sapiens, UniProt Q07912)", "assay": "TR-FRET kinase assay, ACK", "settings": "Kinase Concentration 20 nM; 50 nM ULight-labeled substrate, 200 micromolar ATP, 2 hours", "method": "as §1, §2"}, "FRK": {"molecular_target": "FRK (Homo sapiens, UniProt P42685)", "sequence (P42685 whole entry, species assumed)": "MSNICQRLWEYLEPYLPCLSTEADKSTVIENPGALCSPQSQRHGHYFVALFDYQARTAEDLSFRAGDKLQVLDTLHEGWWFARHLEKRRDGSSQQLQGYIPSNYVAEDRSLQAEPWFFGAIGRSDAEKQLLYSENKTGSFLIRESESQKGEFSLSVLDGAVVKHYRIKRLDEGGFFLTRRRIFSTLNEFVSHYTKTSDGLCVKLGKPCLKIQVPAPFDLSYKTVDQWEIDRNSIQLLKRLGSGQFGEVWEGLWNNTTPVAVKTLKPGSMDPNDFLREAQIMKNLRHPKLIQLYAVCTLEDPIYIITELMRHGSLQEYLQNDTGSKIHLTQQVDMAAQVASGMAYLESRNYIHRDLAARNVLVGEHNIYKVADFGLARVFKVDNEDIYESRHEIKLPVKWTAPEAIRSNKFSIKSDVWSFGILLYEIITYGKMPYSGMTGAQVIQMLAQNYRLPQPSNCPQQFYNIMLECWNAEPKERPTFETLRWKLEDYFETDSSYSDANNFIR", "assay": "TR-FRET kinase assay, FRK", "settings": "Kinase Concentration 0.5 nM; 50 nM ULight-labeled substrate, 200 micromolar ATP, 2 hours", "method": "as §1, §2"}, "JAK1": {"molecular_target": "JAK1 (Homo sapiens, UniProt P23458)", "assay": "TR-FRET kinase assay, JAK1", "settings": "Kinase Concentration 7 nM; 50 nM ULight-labeled substrate, 200 micromolar ATP, 2 hours", "method": "as §1, §2"}, "YES": {"molecular_target": "YES (Homo sapiens, UniProt P07947)", "assay": "TR-FRET kinase assay, YES", "settings": "Kinase Concentration 0.25 nM; 50 nM ULight-labeled substrate, 200 micromolar ATP, 2 hours", "method": "as §1, §2"}, "AXL": {"molecular_target": "AXL (Homo sapiens, UniProt P30530)", "assay": "TR-FRET kinase assay, AXL", "settings": "Kinase Concentration 4 nM; 50 nM ULight-labeled substrate, 200 micromolar ATP, 2 hours", "method": "as §1, §2"}, "EphB2": {"molecular_target": "T1, EphB2 (Homo sapiens, UniProt P29323)", "T1 sequence (P29323 19-1055)": "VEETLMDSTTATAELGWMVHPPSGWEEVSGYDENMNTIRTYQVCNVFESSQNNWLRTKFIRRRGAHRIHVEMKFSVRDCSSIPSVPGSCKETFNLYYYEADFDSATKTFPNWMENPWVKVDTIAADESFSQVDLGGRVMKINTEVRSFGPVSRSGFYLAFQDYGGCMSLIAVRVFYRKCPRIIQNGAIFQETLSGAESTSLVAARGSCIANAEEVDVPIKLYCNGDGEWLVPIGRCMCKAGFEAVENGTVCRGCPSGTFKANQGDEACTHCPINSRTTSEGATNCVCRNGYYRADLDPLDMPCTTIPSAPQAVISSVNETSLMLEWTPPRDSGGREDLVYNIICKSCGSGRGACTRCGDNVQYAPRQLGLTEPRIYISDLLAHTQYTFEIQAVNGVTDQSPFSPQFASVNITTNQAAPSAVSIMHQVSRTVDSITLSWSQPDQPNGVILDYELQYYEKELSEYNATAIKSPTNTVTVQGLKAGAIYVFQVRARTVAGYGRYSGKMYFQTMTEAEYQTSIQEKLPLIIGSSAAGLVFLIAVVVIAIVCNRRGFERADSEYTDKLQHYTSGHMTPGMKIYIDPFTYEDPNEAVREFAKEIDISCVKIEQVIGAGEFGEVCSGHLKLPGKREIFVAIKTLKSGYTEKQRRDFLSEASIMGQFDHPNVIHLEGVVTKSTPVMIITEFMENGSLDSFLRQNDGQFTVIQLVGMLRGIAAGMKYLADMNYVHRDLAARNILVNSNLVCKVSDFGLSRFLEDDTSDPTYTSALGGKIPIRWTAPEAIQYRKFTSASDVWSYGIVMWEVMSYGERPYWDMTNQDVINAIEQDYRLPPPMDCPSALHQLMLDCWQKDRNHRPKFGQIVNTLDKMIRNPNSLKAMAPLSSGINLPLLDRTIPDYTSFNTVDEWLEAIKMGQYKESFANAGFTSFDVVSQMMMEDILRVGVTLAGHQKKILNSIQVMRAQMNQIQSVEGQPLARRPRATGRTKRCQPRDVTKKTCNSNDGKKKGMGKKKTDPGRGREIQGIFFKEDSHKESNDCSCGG", "assay": "TR-FRET kinase assay, EphB2", "settings": "Kinase Concentration 0.25 nM; 50 nM ULight-labeled substrate, 200 micromolar ATP, 2 hours", "method": "as §1, §2"}, "FGFR3": {"molecular_target": "FGFR3 (Homo sapiens, UniProt P22607)", "sequence (P22607 23-806, species assumed)": "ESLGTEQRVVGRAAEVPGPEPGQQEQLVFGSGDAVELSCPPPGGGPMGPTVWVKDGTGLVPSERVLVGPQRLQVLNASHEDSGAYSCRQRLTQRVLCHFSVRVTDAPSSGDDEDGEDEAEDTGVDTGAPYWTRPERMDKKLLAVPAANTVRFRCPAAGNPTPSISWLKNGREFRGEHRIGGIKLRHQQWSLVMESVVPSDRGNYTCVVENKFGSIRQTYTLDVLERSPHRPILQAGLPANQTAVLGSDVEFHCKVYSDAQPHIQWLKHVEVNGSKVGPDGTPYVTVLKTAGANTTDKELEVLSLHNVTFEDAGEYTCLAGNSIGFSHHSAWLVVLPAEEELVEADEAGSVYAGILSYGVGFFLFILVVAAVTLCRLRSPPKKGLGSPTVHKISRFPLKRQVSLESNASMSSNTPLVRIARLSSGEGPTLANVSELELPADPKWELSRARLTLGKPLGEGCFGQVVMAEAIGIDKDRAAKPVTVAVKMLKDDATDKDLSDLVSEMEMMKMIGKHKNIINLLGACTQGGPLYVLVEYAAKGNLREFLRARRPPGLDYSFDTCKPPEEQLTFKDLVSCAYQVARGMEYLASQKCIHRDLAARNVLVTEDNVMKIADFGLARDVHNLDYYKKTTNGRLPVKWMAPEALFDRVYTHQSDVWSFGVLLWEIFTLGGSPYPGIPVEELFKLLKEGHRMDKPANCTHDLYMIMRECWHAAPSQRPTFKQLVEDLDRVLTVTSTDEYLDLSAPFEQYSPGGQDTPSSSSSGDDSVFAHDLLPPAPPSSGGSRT", "assay": "TR-FRET kinase assay, FGFR3", "settings": "Kinase Concentration 0.25 nM; 50 nM ULight-labeled substrate, 200 micromolar ATP, 2 hours", "method": "as §1, §2"}, "FLT4": {"molecular_target": "FLT4 (Homo sapiens, UniProt P35916)", "sequence (P35916 25-1363, species assumed)": "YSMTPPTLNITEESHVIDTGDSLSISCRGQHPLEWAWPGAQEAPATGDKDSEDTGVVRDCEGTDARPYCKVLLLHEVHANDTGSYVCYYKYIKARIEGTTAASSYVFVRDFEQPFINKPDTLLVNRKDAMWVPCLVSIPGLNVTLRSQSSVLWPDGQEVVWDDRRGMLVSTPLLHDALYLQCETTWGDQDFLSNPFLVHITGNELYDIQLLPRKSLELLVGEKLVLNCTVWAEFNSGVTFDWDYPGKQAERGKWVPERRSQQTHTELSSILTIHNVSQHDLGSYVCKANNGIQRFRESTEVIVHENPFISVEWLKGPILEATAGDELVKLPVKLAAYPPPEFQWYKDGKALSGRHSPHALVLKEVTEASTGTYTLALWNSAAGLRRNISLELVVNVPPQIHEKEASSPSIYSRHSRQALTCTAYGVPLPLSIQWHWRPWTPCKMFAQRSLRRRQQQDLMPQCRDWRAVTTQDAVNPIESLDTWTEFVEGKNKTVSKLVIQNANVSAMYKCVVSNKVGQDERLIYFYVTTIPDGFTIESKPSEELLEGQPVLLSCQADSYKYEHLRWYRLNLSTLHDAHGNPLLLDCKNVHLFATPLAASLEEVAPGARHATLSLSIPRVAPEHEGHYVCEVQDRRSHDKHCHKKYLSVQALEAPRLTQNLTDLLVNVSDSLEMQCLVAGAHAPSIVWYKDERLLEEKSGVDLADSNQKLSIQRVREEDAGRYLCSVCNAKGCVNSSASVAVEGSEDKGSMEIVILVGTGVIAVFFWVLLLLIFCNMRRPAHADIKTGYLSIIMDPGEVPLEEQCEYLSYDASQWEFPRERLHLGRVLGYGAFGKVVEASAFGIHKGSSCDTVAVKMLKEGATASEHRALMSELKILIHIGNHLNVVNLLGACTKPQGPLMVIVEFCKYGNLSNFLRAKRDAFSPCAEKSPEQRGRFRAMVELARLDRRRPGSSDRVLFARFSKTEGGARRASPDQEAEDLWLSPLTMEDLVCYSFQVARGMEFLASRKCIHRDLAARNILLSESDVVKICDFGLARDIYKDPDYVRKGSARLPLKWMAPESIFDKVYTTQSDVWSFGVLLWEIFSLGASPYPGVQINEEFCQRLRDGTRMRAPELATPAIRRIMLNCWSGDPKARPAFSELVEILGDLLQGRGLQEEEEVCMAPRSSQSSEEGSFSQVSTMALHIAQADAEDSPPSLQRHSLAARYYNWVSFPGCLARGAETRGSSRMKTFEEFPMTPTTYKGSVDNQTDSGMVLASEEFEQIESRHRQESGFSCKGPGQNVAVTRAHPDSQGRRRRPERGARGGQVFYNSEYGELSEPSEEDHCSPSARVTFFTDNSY", "assay": "TR-FRET kinase assay, FLT4", "settings": "Kinase Concentration 0.25 nM; 50 nM ULight-labeled substrate, 200 micromolar ATP, 2 hours", "method": "as §1, §2"}, "PDGFRβ": {"molecular_target": "PDGFRβ (Homo sapiens, UniProt P09619)", "sequence (P09619 33-1106, species assumed)": "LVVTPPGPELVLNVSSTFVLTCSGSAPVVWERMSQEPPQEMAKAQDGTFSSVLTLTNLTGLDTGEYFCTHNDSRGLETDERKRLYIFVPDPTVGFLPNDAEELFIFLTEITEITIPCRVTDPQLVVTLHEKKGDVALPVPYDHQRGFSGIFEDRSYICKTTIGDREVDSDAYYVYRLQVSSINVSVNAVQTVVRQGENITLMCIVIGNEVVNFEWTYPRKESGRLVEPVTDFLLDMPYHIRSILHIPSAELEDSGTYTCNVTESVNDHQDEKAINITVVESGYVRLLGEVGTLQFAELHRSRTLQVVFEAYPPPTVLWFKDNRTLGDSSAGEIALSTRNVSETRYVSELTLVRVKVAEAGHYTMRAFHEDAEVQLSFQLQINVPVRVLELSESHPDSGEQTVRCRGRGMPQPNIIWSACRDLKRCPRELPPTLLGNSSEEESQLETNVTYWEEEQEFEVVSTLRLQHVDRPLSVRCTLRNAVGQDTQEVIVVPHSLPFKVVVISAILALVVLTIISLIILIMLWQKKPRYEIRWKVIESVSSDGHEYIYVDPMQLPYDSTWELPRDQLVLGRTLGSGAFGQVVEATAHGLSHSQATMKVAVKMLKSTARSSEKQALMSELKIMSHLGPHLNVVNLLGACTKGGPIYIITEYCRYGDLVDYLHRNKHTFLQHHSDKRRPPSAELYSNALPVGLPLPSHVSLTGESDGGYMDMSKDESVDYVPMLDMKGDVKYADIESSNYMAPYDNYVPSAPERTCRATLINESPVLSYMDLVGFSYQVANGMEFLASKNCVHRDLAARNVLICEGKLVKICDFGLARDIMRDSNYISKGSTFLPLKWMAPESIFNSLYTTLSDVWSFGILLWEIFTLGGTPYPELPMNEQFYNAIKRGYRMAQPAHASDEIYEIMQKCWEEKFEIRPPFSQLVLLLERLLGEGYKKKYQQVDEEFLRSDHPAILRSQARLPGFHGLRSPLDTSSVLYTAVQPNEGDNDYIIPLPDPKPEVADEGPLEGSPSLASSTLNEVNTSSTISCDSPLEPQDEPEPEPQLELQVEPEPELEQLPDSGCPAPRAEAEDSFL", "assay": "TR-FRET kinase assay, PDGFRβ", "settings": "Kinase Concentration 0.25 nM; 50 nM ULight-labeled substrate, 200 micromolar ATP, 2 hours", "method": "as §1, §2"}, "RET": {"molecular_target": "RET (Homo sapiens, UniProt P07949)", "assay": "TR-FRET kinase assay, RET", "settings": "Kinase Concentration 0.5 nM; 50 nM ULight-labeled substrate, 200 micromolar ATP, 2 hours", "method": "as §1, §2"}, "ROR2": {"molecular_target": "ROR2 (Homo sapiens, UniProt Q01974)", "assay": "TR-FRET kinase assay, ROR2", "settings": "Kinase Concentration 20 nM; 50 nM ULight-labeled substrate, 200 micromolar ATP, 2 hours", "method": "as §1, §2"}, "83 tyrosine kinases": {"test_system": "83 tyrosine kinases", "assay": "Panel of 83 TR-FRET tyrosine kinase assays", "settings": "83 tyrosine kinases tested; conditions of Example 1", "method": "as §1, §2\nThe BRB2 peptide is tested with 83 tyrosine kinases in assay conditions identical to those used for BRB1 in Example 1. Data obtained with BRB2 indicate that the peptide is phosphorylated by 65 kinases out of 83 (78%), with signal to noise ratio of >3."}}}
{"sequence": "C AYE AYE AYE K EYA EYA EYA K AYA EYE R (CAYEAYEAYEKEYAEYAEYAKAYAEYER; tyrosine kinase substrate peptide) [BRB1]", "values": [{"measurement": "Signal to Noise ratio with BRB1 Peptide", "setting": "ABL", "result": 4.1}, {"measurement": "Signal to Noise ratio with BRB1 Peptide", "setting": "ACK", "result": 17.3}, {"measurement": "Signal to Noise ratio with BRB1 Peptide", "setting": "FRK", "result": 9.7}, {"measurement": "Signal to Noise ratio with BRB1 Peptide", "setting": "JAK1", "result": 13.7}, {"measurement": "Signal to Noise ratio with BRB1 Peptide", "setting": "YES", "result": 28.0}, {"measurement": "Signal to Noise ratio with BRB1 Peptide", "setting": "AXL", "result": 1.8}, {"measurement": "Signal to Noise ratio with BRB1 Peptide", "setting": "EphB2", "result": 28.8}, {"measurement": "Signal to Noise ratio with BRB1 Peptide", "setting": "FGFR3", "result": 24.4}, {"measurement": "Signal to Noise ratio with BRB1 Peptide", "setting": "FLT4", "result": 20.0}, {"measurement": "Signal to Noise ratio with BRB1 Peptide", "setting": "PDGFRβ", "result": 4.7}, {"measurement": "Signal to Noise ratio with BRB1 Peptide", "setting": "RET", "result": 20.3}, {"measurement": "Signal to Noise ratio with BRB1 Peptide", "setting": "ROR2", "result": 1.0}, {"measurement": "Number of kinases out of 83 that phosphorylated the peptide with signal to noise ratio of >3", "setting": "83 tyrosine kinases", "result": 72}, {"measurement": "Percentage of 83 kinases that phosphorylated the peptide with signal to noise ratio of >3", "setting": "83 tyrosine kinases", "result": 87, "unit": "%"}]}
